Laboratory results from US12006361 (SONNET BIOTHERAPEUTICS, dated 2024).

Key:
Assay in all cases: biopanning and SPR screening
human TGFβ3 = target: T1, human TGFβ3 (human, UniProt P10600 301-412)
T1 construct: also called hTGFβ3
T1 sequence (looked up): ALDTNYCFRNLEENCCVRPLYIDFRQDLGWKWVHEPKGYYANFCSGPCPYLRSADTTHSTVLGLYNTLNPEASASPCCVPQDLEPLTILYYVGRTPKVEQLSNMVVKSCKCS

mouse TGFβ1 = target: T2, mouse TGFβ1 (mouse, UniProt P04202 279-390)
T2 construct: also called mTGFβ1; mTGFβ-1

human TGFβ2 = target: T3, human TGFβ2 (human, UniProt P61812 303-414)
T3 construct: also called hTGFβ2
T3 sequence (looked up): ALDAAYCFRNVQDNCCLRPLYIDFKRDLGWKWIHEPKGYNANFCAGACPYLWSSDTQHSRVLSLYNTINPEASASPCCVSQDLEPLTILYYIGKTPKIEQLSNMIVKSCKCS

human TGFβ1 = target: T4, human TGFβ1 (human, UniProt P01137 279-390)
T4 construct: also called hTGFβ1; hTGFβ-1

Measured: binding result

T2 sequence (P04202 279-390 limits assumed): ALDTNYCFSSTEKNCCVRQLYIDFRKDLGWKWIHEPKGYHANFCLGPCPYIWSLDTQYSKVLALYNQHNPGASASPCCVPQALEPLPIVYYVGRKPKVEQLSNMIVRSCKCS
T4 sequence (P01137 279-390 limits assumed): as the sequence (P04202 279-390 limits assumed) above, with S75A counted along it

B1: 4H7 (scFv)
scFv: QVQLVESGGGLVKPGRSLRLSCAASGFTFSSYAMHWVRQAPGKGLEWVAVISYDGSNKYYADSVKGRFTISRDNSKNTLYLQMNSLRAEDTAVYYCAKEMRYCSGGSCYPYAYYMDVWGQGTTVTVSSASTGGGGSGGGGSGGGGSVHSSSELTQDPAVSVALGQTVRITCQGDSLRSYYASWYQQKPGQAPVLVIYGKNNRPSGIPDRFSGSSSGNTASLTITGAQAEDEADYYCNSRDSSGNLVVFGGGTKLTVLGLGG
notes: also called anti-TGFβ-1 scFv 4H7
binds: human TGFβ3 | mouse TGFβ1 | human TGFβ2 | human TGFβ1
